Read-outs that look alike come from different tables or passages of the source. One block for each binder: values may come before it.
Tests used:
mAng2 = target: T1, mAng2; test: competition ELISA, blocking of mAng2 binding to mTie2
T1 construct: also called mouse Ang2
T1 chain: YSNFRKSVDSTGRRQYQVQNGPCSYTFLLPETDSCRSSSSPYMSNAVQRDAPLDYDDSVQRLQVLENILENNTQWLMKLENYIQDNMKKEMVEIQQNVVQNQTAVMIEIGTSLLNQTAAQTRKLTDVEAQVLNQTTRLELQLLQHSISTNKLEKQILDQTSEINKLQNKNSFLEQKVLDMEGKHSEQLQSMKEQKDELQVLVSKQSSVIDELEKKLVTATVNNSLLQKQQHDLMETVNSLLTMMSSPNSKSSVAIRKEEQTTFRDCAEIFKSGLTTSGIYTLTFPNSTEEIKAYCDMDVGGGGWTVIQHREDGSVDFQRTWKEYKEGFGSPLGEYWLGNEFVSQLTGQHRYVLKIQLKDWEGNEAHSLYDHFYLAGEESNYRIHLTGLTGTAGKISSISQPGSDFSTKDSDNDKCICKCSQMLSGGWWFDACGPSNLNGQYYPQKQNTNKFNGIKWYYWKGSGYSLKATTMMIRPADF

hAng2 = target: T2, hAng2; test: competition ELISA, blocking of hAng2 binding to hTie2
T2 construct: also called human Ang2
T2 chain: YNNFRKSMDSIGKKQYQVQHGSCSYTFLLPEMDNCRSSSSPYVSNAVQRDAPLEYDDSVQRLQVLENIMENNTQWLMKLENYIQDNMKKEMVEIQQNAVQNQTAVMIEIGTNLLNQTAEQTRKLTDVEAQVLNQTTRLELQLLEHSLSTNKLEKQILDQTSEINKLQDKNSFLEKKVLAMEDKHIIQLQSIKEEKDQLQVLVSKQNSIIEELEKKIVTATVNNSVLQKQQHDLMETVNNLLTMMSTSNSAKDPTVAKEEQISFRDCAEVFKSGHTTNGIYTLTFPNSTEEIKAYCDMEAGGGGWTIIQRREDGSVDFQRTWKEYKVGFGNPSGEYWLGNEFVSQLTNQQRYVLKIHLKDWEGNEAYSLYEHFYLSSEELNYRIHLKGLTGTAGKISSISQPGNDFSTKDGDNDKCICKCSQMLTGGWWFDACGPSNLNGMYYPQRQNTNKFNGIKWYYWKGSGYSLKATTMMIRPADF

[1] = target: T3, recombinant human VEGF165 (human, UniProt P15692-4 27-191); test: VEGF165/VEGFR2 blocking AlphaScreen
T3 construct: also called hVEGF165; rhVEGF165

[2] = target: T3, recombinant human VEGF165; test: Biacore on VEGF165 (Example 5.5)
Description: (§1) Samples are injected for 2 min and allowed to dissociate up to 20 min at a flow rate of 45 μI/min. In between sample injections, the chip surface is regenerated with 100 mM HCl. HBS-EP+(Hepes buffer pH7.4+EDTA) is used as running buffer. Binding curves are fitted using a Two State Reaction model by Biacore T100 Evaluation Software v2.0.1.

VEGF [3] = test: cell-based or functional assay
[4] = target: T3, recombinant human VEGF165; test: VEGF165/hVEGFR1-Fc competition AlphaScreen
Description: (§2) Finally, streptavidin donor beads (20 μg/ml) are added and after 1 hour of incubation in the dark, fluorescence is measured on the Envision microplate reader.

human VEGF-B = target: T4, human VEGF-B (human, UniProt P49765-2 22-188, limits assumed); test: binding ELISA on coated VEGFB
T4 construct: also called hVEGF-B
T4 sequence (looked up): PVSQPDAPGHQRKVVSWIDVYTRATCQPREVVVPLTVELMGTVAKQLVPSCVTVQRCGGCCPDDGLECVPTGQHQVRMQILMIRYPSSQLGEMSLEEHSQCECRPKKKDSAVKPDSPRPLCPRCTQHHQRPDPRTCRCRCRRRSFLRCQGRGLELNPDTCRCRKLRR
Description: (§3) Binding to VEGFB, VEGFC, VEGFD and PIGF is assessed via a solid phase binding ELISA. In brief, VEGFB, VEGFC, VEGFD and PIGF (R&D Systems, Minneapolis, Minn., USA) are coated overnight at 4° C. at 1 μg/mL in a 96-well MaxiSorp plate (Nunc, Wiesbaden, Germany). Wells are blocked with a casein solution (1% in PBS). […] As positive controls serial dilutions of the appropriate receptors are taken along and detected with horseradish peroxidase (HRP)-conjugated goat anti-human IgG, Fc specific antibody (Jackson Immuno Research Laboratories Inc., West Grove, Pa., USA) and a subsequent enzymatic reaction in the presence of the substrate TMB (3,3′,5,5′-tetramentylbenzidine) (Pierce, Rockford, Ill., USA).

human VEGF-C = target: T5, human VEGF-C (human, UniProt P49767 103-227); test: binding ELISA on coated VEGFC
T5 construct: also called hVEGF-C
T5 sequence (looked up): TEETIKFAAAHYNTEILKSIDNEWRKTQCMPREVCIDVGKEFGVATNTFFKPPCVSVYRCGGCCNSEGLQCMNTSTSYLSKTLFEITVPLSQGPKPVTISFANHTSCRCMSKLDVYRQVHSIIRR
Description: as §3

[5] = target: T3, recombinant human VEGF165; test: SPR Biacore T100, Two State Reaction model; KD = kd1/ka1 * (kd2/(kd2 + ka2))
Description: as §1
(§4) ^{(a)}KD = kd1/kₐ₁ * (kd2/(kd2 + kₐ₂)) ^{(b)}Curves are fitted using a Two State Reaction model by Biacore T100 Evaluation Software v2.0.1

[6] = target: T3, recombinant human VEGF165; test: kd1; SPR Biacore T100, hVEGF165 on chip, Two State Reaction model
Description: as §1, §4

[7] = target: T3, recombinant human VEGF165; test: ka1; SPR Biacore T100, hVEGF165 on chip, Two State Reaction model
Description: as §1, §4

[8] = target: T3, recombinant human VEGF165; test: VEGF/VEGFR2 competition AlphaScreen
Description: as §2

VEGF [9] = test: cell-based or functional assay; remark: listed apart in the source
[10] = target: T3, recombinant human VEGF165; test: hVEGF165/hVEGFR2-Fc competition AlphaScreen
Description: as §2

[11] = target: T6, recombinant mouse VEGF164 (mouse, UniProt Q00731-2 27-190); test: binding ELISA on coated mouse VEGF164
T6 construct: biotinylated in the mVEGFR2 AlphaScreen; also called rmVEGF164; mVEGF164
T6 sequence (looked up): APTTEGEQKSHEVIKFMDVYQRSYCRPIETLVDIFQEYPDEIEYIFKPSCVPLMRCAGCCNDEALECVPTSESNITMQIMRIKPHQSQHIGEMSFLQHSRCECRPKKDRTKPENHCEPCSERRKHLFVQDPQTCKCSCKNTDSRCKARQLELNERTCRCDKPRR
Description: Cross-reactivity to mouse VEGF164 is determined using a binding ELISA. […] Wells are blocked with a casein solution (1% in PBS). […] A mouse VEGF164 reactive mAb is included as positive control.

[12] = target: T3, recombinant human VEGF165; test: hVEGF165/hVEGFR2-Fc competition ELISA
human PIGF = target: T7, human PIGF (human, UniProt P49763-2 21-149, limits assumed); test: binding ELISA on coated PIGF
T7 construct: also called hPIGF; PLGF
T7 sequence (looked up): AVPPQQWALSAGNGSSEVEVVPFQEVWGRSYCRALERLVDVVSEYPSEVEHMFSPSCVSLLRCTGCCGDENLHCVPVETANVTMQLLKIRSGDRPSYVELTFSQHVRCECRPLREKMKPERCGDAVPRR
Description: as §3

human VEGF-D = target: T8, human VEGF-D (human, UniProt O43915 93-201); test: binding ELISA on coated VEGF D
T8 construct: also called hVEGF-D
T8 sequence (looked up): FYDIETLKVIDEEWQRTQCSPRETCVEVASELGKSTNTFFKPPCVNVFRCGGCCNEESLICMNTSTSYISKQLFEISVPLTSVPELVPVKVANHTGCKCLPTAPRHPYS
Description: as §3

[13] = target: T3, recombinant human VEGF165; test: VEGF/VEGFR1 competition AlphaScreen
Description: as §2

[14] = target: T3, recombinant human VEGF165; test: VEGF165/hVEGFR1-Fc competition ELISA
[15] = target: T3, recombinant human VEGF165; test: SPR Biacore T100, hVEGF165 on chip, Two State Reaction model
Description: as §1, §4

[16] = target: T9, recombinant human VEGF121 (human, UniProt P15692-9 27-147); test: binding ELISA, coated rhVEGF121
T9 construct: also called rhVEGF121; hVEGF121
T9 sequence (looked up): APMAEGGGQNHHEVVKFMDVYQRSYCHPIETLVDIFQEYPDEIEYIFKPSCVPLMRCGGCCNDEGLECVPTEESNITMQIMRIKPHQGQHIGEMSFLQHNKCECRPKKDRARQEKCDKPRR
Description: Binding to recombinant human VEGF121 is assessed via a solid phase binding ELISA. Briefly, recombinant human VEGF121 (R&D Systems, Minneapolis, Minn., USA) is coated overnight at 4° C. at 1 μg/mL in a 96-well MaxiSorp plate (Nunc, Wiesbaden, Germany). Wells are blocked with a casein solution (1% in PBS).

VEGF [17] = test: cell-based or functional assay; remark: listed apart in the source
[18] = target: T3, recombinant human VEGF165; test: binding ELISA, coated rhVEGF165

IC50 (read off the curve) (mAng2): ~0.03 nM
IC50 (read off the curve) (hAng2): ~0.02 nM
B1: ANGBII00002 (VHH)
bivalent VHH: EVQLVESGGGLVQAGGSLRLSCAASGFTFDDYALGWFRQAAGKEREGVSCIRCSDGSTYYADSVKGRFTISSDNAKNTVYLQMNSLKPEDTAVYYCAASIVPRSKLEPYEYDAWGQGTLVTVSSGGGGSGGGGSGGGGSGGGGSGGGGSGGGGSGGGGSGGGGSEVQLVESGGGLVQAGGSLRLSCAASGFTFDDYALGWFRQAAGKEREGVSCIRCSDGSTYYADSVKGRFTISSDNAKNTVYLQMNSLKPEDTAVYYCAASIVPRSKLEPYEYDAWGQGTLVTVSS
notes: homodimeric anti-Ang2 VHH; also called 1D01-40gs-1D01

% inhibition [1]: 100%
IC50 [1]: 0.3 nM
Kd [2]: 0.27 nM
% inhibition, VEGF HUVEC proliferation assay (VEGF [3]): 78%
IC50 (nM), VEGF HUVEC proliferation assay (VEGF [3]): 1.54 nM
B2: VEGFBII037 (VHH)
VHH: DVQLVESGGGLVQPGGSLRLSCAASGRTFSSYSMGWFRQAPGKEREFVVAISKGGYKYDAVSLEGRFTISRDNAKNTVYLQMNSLRPEDTAVYYCASSRAYGSSRLRLADTYEYWGQGTLVTVSS
notes: also called VEGFBII0037

% inhibition [4]: 98%
IC50 [4]: 0.069 nM
binding result (human VEGF-B): no binding (tested: 5e-7 M)
binding result (human VEGF-C): no binding (tested: 5e-7 M)
Kd [5]: 0.47 nM
koff [6]: 0.013 s⁻¹
kon [7]: 300000 M⁻¹ s⁻¹
IC50 [8]: 0.012 nM
% inhibition, VEGF HUVEC proliferation assay (VEGF [9]): 96%
IC50 (nM), VEGF HUVEC proliferation assay (VEGF [9]): 0.38 nM
% inhibition [10]: 100%
IC50 [10]: 0.05 nM
binding result [11]: binds
% inhibition [12]: 100%
IC50 [12]: 0.292 nM
binding result (human PIGF): no binding (tested: 5e-7 M)
binding result (human VEGF-D): no binding (tested: 5e-7 M)
% inhibition [13]: 100%
IC50 [13]: 0.046 nM
% inhibition [14]: 92%
IC50 [14]: 0.326 nM
ka2 [15]: 0.026 s⁻¹
kd2 [15]: 0.00028 s⁻¹
EC50 [16]: 0.325 nM
% inhibition, VEGF HUVEC Erk phosphorylation assay (VEGF [17]): 94%
IC50 (nM), VEGF HUVEC Erk phosphorylation assay (VEGF [17]): 0.23 nM
EC50 [18]: 0.32 nM
B3: VEGFBII024 (VHH)
chain: EVQLVESGGGLVQTGDSLRLSCEVSGRTFSSYSMGWFRQAQGKEREFVVAISKGGYKYDSVSLEGRFTISKDNAKNTVYLQINSLKPEDTAVYYCASSRAYGSSRLRLADTYEYWGQGTQVTVSSGGGGSGGGGSGGGGSGGGGSGGGGSGGGGSGGGGSGGGGSEVQLVESGGGLVQAGGSLRLSCTASGSAFKSYRMGWFRRTPGKEDEFVASISWTYGSTFYADSVKGRFTMSRDKAKNAGYLQMNSLKPEDTALYYCAAGAQSDRYNIRSYDYWGQGTQVTVSS
notes: biparatopic bivalent VHH in one chain; also called VEGFBII23B04-40GS-86H09; VEGFBI024

From US20170247475A1 (Boehringer Ingelheim, published 2017)
